Test results as given in article PMC5125287 (Annals of Medicine, 2016).

Molecular target: Recombinant carrier-free human βNGF (human, UniProt P01138 122-241)
Assay: SPR; BIACORE; PDPN/Fc amine-coupled to a CM5 chip (6000 to 8000 RU); analyte injected at 5 μl/min; NGF at 1 μM; 20 °C; HBS-P (0.01 M Hepes pH 7.4/0.15 M NaCl/0.005% Surfactant P20); reference channel subtracted; regeneration with 1% heparin in PBS; 1:1 Langmuir fit, KD estimated by the steady-state affinity model
Settings: both partners purified

Chain of Recombinant carrier-free human βNGF (P01138 122-241): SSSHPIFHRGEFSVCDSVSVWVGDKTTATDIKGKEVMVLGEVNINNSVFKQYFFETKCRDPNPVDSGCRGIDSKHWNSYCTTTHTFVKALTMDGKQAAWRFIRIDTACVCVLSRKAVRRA

Kd: ~100 nM
B1: Human podoplanin extracellular domain/Fc chimera (Fc fusion, UniProt Q86YL7 23-131, looked up)
chain: ASTGQPEDDTETTGLEGGVAMPGAEDDVVTPGTSEDRYKSGLTTLVATSVNSVTGIRIEDLPTSESTVHAQEQSPSATASNVATSHSTEKVDGDTQTTVEKDGLSTVTL
